Reference: article doi:10.1101/2020.01.10.902072 (bioRxiv, 2020)

Biological target: the molecule itself
Assay: cryo-EM structure

B1: rat GluD2 receptor, C-terminally truncated at residue 870 (GluD2Δ870) (receptor, UniProt Q63226 24-870, looked up)
chain: DSIIHIGAIFDESAKKDDEVFRTAVGDLNQNEEILQTEKITFSVTFVDGNNPFQAVQEACELMNQGILALVSSIGCTSAGSLQSLADAMHIPHLFIQRSTAGTPRSGCGLTRSNRNDDYTLSVRPPVYLNEVILRVVTEYAWQKFIIFYDSEYDIRGIQEFLDKVSQQGMDVALQKVENNINKMITTLFDTMRIEELNRYRDTLRRAILVMNPATAKSFISEVVETNLVAFDCHWIIINEEINDVDVQELVRRSIGRLTIIRQTFPVPQNISQRCFRGNHRISSTLCDPKDPFAQNMEISNLYIYDTVLLLANAFHKKLEDRKWHSMASLSCIRKNSKPWQGGRSMLETIKKGGVNGLTGDLEFGENGGNPNVHFEILGTNYGEELGRGVRKLGCWNPVTGLNGSLTDKKLENNMRGVVLRVVTVLEEPFVMVSENVLGKPKKYQGFSIDVLDALSNYLGFNYEIYVAPDHKYGSPQEDGTWNGLVGELVFKRADIGISALTITPDRENVVDFTTRYMDYSVGVLLRRAEKTVDMFACLAPFDLSLWACIAGTVLLVGLLVYLLNWLNPPRLQMGSMTSTTLYNSMWFVYGSFVQQGGEVPYTTLATRMMMGAWWLFALIVISSYTANLAAFLTITRIESSIQSLQDLSKQTDIPYGTVLDSAVYQHVRMKGLNPFERDSMYSQMWRMINRSNGSENNVLESQAGIQKVKYGNYAFVWDAAVLEYVAINDPDCSFYTVGNTVADRGYGIALQHGSPYRDVFSQRILELQQSGDMDILKHKWWPKNGQCDLYSSVDAKQKGGALDIKSLAGVFCILAAGIVLSCLIAVLETWWSRRKGSRVPSKEDDK
**Q.** With B1 as the protein, how does the “stoichiometry N” value read?
**A.** Its value is 4.
